Assay [1] addresses T1, cynomolgus monkey PD1 human Fc tagged recombinant protein (cynomolgus monkey, UniProt Q15116 25-170 (human entry), limits assumed).
T1 construct: also called cyPD1-Fc; cyPD-1-Fc; not shown: human Fc tag
T1 chain: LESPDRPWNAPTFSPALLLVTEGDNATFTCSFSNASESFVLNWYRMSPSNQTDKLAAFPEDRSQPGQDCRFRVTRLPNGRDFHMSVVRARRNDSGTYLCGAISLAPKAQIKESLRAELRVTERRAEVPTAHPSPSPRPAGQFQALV
The assay is described as follows: direct ELISA, IgG1null on coated PD1-Fc. How it is done:
(§1) Binding and cross-reactivity of the lead panel to the recombinant proteins was initially assessed by binding ELISA. The human PD1 human Fc tagged recombinant protein and the cynomolgus monkey PD1 human Fc tagged recombinant protein were coated to the surface of MaxiSorp™ flat-bottom 96 well plate at 1 μg/ml. […] The Fabs were detected using mouse anti-c-myc antibody followed by donkey anti-mouse IgG conjugated to horseradish peroxidase. The IgGs were detected using the mouse anti-human IgG conjugated to horseradish peroxidase. Binding signals were visualized with 3,3′,5,5′-Tetrannethylbenzidine Substrate Solution (TMB) and the absorbance measured at 450 nm.
(§2) The purified IgGs described above were then tested for binding to human and cyno PD1-Fc in direct titration ELISA format. […] As the ELISA EC50 values for directly binding IgGs are strongly influenced by avidity, rather than true 1:1 binding affinity, we then proceeded to perform higher-sensitivity, solution-phase epitope competition and Biacore binding affinity determinations, as outlined below.
For orientation: ELISA stands for enzyme-linked immunosorbent assay.

Assay [2] has as its target T2, human PD1 human Fc tagged recombinant protein (human, UniProt Q15116 25-170, limits assumed).
T2 construct: also called huPD1-Fc; huPD-1-Fc; not shown: human Fc tag
The assay can be described thus: direct ELISA, IgG1null on coated PD1-Fc. How it is done: as §1, §2

Assay [3] deals with T3, human PD1 His tagged (monomeric) (human, UniProt Q15116 25-170, limits assumed).
T3 construct: Soluble monomeric analyte; whole entry named; also called monomeric human PD1; not shown: His tag
T3 sequence (Q15116 25-170 limits assumed): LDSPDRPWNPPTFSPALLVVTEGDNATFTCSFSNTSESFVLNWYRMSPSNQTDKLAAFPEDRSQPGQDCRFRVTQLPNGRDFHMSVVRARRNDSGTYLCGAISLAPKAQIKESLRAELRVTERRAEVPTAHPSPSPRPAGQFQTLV
The assay can be described thus: SPR (Biacore), IgG captured, monomeric PD1-His analyte. As for the experimental part:
(§3) Affinity (KD) of purified IgGs was determined via SPR with antigen in-solution on a Biacore 3000 (GE). A mouse anti-human antibody (CH1 specific) was immobilized on a CM5 Sensor Chip to a level of 2000 RU in acetate buffer at pH 4.5 using amine coupling following the Wizard instructions for two channels. One channel was used for background signal correction. The standard running buffer HBS-EP pH 7.4 was used. Regeneration was performed with a single injection of 10 μl of 10 mM Glycine at pH 1.5 at 20 μl/minute. IgG samples were injected for 2 minutes at 50 nM at 30 μl/min followed by and off-rate of 60 seconds. […] The obtained sensorgrams were analysed using the Biacore 3000 evaluation (BIAevaluation) software. The KD was calculated by simultaneous fitting of the association and dissociation phases to a 1:1 Langmuir binding model.
(§4) Biacore analyses of binding affinity was performed for all IgGs to solution-phase, monomeric human and cyno PD1 proteins.
(In SPR one partner is held on a chip, and binding of the other changes the refractive index at the surface.)

Assay [4] deals with T4, cynomolgus monkey PD1 His tag (monomeric) (cynomolgus monkey, UniProt Q15116 25-170 (human entry), limits assumed).
T4 construct: Soluble monomeric analyte; whole entry named; also called monomeric cyno PD1; not shown: His tag
T4 chain: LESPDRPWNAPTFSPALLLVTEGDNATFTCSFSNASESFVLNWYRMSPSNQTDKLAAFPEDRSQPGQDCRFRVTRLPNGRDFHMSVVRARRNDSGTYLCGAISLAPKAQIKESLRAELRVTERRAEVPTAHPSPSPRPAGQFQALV
Described as above. As for the experimental part: as §3, §4

Assay [5] concerns the target T5, biotinylated human PD1-His/AviTag (human, UniProt Q15116 25-170, limits assumed, biotinylated).
T5 construct: Alphascreen antigen; whole entry named; also called biotinylated monomeric human PD1; not shown: His/AviTag
The assay can be described thus: Alphascreen competition vs IgG1-Mab005 (humanized). As for the experimental part: The AlphaScreen assay (Perkin Elmer) was performed in a 25 μl final volume in 384-well white microtiter plates (Greiner). The reaction buffer contained 1×PBS pH 7.3 (Oxoid, Cat. nr. BRO014G) and 0.05% (v/v) Tween® 20 (Sigma, Cat. nr. P9416). Purified IgG samples were titrated in three fold serial dilutions starting at 500 nM final concentration and incubated with biotinylated human PD1-His/AviTag at 0.6 nM final concentration for 20 minutes at room temperature. […] Followed by addition of the Streptavidin Donor beads at 20 μg/ml (final concentration) and incubation for 30 minutes at room temperature. The emission of light was measured in the EnVision multilabel plate reader (Perkin Elmer) and analysed using the EnVision manager software. Values were reported as Counts Per Second (CPS) and corrected for crosstalk.
A general note: Alpha assays give light when donor and acceptor beads are brought close together.

Assay [6] has as its target T4, cynomolgus monkey PD1 His tag …. The assay is described as follows: SPR (Biacore); cyno KD against human KD. As for the experimental part:
as §3, §4

The target of assay [7] is T6, cyno PD1 expressed on CHO-K1 cells (cynomolgus monkey, UniProt Q15116 25-288 (human entry)).
T6 construct: also called cyno PD1+ CHO cells
T6 chain: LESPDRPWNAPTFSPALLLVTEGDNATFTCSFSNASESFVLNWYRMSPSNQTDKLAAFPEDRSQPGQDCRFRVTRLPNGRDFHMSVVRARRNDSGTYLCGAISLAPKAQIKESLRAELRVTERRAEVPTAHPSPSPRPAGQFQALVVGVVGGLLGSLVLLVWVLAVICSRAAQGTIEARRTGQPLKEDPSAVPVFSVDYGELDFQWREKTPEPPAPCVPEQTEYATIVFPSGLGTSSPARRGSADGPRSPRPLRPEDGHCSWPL
The assay can be described thus: flow cytometry, PD1 CHO-K1 cells. As for the experimental part:
(§5) Purified IgGs were tested in FACs for binding to human and cyno PD1 expressed on CHO-K1 stable cell lines and CHO-K1 wild-type cells. […] Binding of IgGs was detected with a mouse anti-human IgG conjugated to FITC. Results were analyzed by examining the Mean Fluorescence Intensity (MFI) of 10000 cells per sample in the BL-1 channel detector of a flow cytometer (Attune™ NxT Acoustic Focusing Cytometer, Invitrogen/ThermoFisher Scientific).
(§6) Antibodies to PD1 were analysed for concentration-dependent binding at the cell surface via flow cytometry. Initial analyses were performed on CHO cells stably-transfected with human or cyno PD1.

The target in assay [8] is T7, human PD1 expressed on cells (human, UniProt Q15116 25-288).
T7 construct: also called human PD1+ CHO cells; PD1-transfected HEK293 cells
T7 sequence (Q15116 25-288 limits assumed): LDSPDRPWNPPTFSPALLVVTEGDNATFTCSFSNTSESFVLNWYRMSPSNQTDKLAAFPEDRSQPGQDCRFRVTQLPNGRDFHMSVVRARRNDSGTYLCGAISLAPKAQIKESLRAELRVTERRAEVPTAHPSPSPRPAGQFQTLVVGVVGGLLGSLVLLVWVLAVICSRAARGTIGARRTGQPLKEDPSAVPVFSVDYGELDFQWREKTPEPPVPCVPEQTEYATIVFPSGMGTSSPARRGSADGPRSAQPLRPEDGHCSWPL
The assay can be described thus: flow cytometry, PD1 CHO-K1 cells. How it is done:
as §5, §6

In assay [9] the target is T1, cynomolgus monkey PD1 human Fc tagged …. The assay is described as follows: direct ELISA, IgG1null on coated PD1-Fc. As for the experimental part: as §1, §2
In assay [10] the target is T2, human PD1 human Fc tagged recombinant …. The assay is described as follows: direct ELISA, IgG1null on coated PD1-Fc. As for the experimental part:
as §1, §2
This is another data set of the same source.

For assay [11], the target named is T7, human PD1 expressed on cells. The assay is described as follows: cell-based or functional assay.

Like-named read-outs stand apart in the source and are kept apart here.

T2 sequence (Q15116 25-170 limits assumed): as the sequence (Q15116 25-170 limits assumed) above
T5 sequence (Q15116 25-170 limits assumed): as above

B1: IgG1-Mab005 (humanized) (antibody, V domains shown)
VH: EVQLVESGGGLVQPGGSLRLSCAASGFTFSSYMMSWVRQAPGKGLEWVATISGGGANTYYPDSVKGRFTISRDNAKNSLYLQMNSLRAEDTAVYYCARQLYYFDYWGQGTTVTVSS
VL: DIQMTQSPSSLSASVGDRVTITCLASQTIGTWLTWYQQKPGKAPKLLIYTATSLADGVPSRFSGSGSGTDFTLTISSLQPEDFATYYCQQVYSIPWTFGGGTKVEIK
notes: tested as human IgG1null (IgG1 with L234A, L235A, G237A) with human Ckappa; also called Mab005-IgG1 (humanized); Mab005-IgG1 (hum)
What is called EC50 is the midpoint of the concentration-response curve. What is called Kd is the equilibrium constant for the complex coming apart. What is called koff is the first-order rate constant of dissociation. What is called kon is the rate constant with which the complex forms. The IC50 is the concentration that gives 50% inhibition. In the case of B1, the EC50 in assay [1] came out at 0.132 nM; in [2] it was 0.114 nM; in assay [7], 6.53 nM; in assay [8], 2.32 nM; in [9], 0.152 nM; in assay [10] it was 0.137 nM. For the same molecule, the Kd was determined as 4 nM in assay [3] and 32 nM in assay [4]. Also, the koff in assay [3] stood at 0.00047 s⁻¹; in assay [4], 0.0028 s⁻¹. Further, the figures for the kon in assay [3] and in [4] were 120000 M⁻¹ s⁻¹ and 88000 M⁻¹ s⁻¹, respectively. In addition, the IC50 in [5] is 2.14 nM. Further, the “human/cyno affinity differential (fold)” value in assay [6] was found to be 8 fold. Moreover, the “EC50 (ng/ml), IgG1null blockade of human PD1/PD-L1” value in assay [11] is 285 ng/mL.

For the origin of these results see US20240124590A1 (ULTRAHUMAN EIGHT, published 2024).
